Laboratory results taken from patent US20250257112A1.

molecular target: PTH receptor ("PTHIR"); assay: cell-based or functional assay

Substance | cAMP potency (EC50)
PTH(1-84)-Fc with F34A, V35S (Fc fusion) | 0.28 nM
PTH-66, PTH(1-74)-[F34A, V35S]-hFcLALA-deltaLys (Fc fusion) | 0.24 nM
PTH-67, PTH(1-64)-[F34A, V35S]-hFcLALA-deltaLys (Fc fusion) | 0.24 nM
PTH-68, PTH(1-54)-[F34A, V35S]-hFcLALA-deltaLys (Fc fusion) | 0.21 nM
